These results are taken from patent US20240116985A1 (published 2024).

Starred links: 1 amine or outer side, 2 acyl side, 3 side chain; linkers in the order of their positions; H or OH if unused. Positions of bridges follow the written chain, without caps; N, C: chain ends. Non-standard residues stand in square brackets, D forms with d. Primed or numbered codes have the meaning given here. PyrS2(3) = (S)-3-amino-1-((pent-4-en-1-yloxy)carbonyl)pyrrolidine-3-carboxylic acid, stapling residue, C=CCCCOC(=O)N1CC[C@@](N[*:1])(C(=O)[*:2])C1; B5(4) = 2,2-bis(4-pentenyl)glycine = 2-amino-2-(pent-4-en-1-yl)hept-6-enoic acid (stitching residue), C=CCCCC(CCCC=C)(N[*:1])C(=O)[*:2]; Phe(2-Cl) = N[C@@H](Cc1ccccc1Cl)C(=O)O; Bta = N[C@@H](Cc1csc2ccccc12)C(=O)O; αAllylPro = C=CC[C@@]1(C(=O)O)CCCN1; Cha = N[C@@H](CC1CCCCC1)C(=O)O; S8 = C=CCCCCCC[C@](C)(N)C(=O)O; R5 = C=CCCC[C@@](C)(N)C(=O)O

The target in assay [1] is T1, full-length beta-Catenin (Uniprot ID P35222) (Homo sapiens (Human), UniProt P35222 2-781).
T1 construct: also called bCat; B-Catenin
T1 sequence: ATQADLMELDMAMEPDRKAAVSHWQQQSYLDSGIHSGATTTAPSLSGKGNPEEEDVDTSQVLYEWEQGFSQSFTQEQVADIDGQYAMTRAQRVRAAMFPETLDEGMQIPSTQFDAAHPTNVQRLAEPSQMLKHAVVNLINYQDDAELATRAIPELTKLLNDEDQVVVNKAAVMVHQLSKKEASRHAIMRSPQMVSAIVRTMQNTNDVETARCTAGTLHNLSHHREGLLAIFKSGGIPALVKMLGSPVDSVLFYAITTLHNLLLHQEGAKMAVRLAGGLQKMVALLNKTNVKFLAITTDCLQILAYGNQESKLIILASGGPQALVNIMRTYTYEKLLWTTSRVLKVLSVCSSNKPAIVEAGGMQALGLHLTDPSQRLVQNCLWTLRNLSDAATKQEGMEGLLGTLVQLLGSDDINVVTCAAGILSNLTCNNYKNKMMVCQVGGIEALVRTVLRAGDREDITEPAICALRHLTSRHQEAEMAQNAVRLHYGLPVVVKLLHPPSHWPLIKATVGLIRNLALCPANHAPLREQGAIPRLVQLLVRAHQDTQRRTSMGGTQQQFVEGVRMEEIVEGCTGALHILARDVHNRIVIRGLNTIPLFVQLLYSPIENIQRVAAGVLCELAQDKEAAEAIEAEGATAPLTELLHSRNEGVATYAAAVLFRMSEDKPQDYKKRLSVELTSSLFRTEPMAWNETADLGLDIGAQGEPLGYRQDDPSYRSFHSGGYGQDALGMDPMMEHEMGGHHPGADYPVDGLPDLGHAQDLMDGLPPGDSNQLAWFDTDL
Put plainly: fluorescence polarization competition, displacement of 5FAM-TCF4 10-53 from full-length beta-catenin. On the procedure:
The plate was incubated protected from light for 60 minutes at 20° C. prior to read. Reads were performed on a CLARIOstar plate reader (BMG Labtech) in duplicate, and data were fitted to a 1:1 binding model with hill slope using an in-house script. All provided concentrations are final concentrations.
(In general: In fluorescence polarisation assays a small probe gives low polarisation when free and higher when bound to something large.)

Assay [2] deals with T2, Bcat-Halo (UniProt P35222 1-781).
T2 construct: Construct transfected into HEK293 cells for NanoBRET; not shown: HaloTag fusion partner
T2 sequence (looked up): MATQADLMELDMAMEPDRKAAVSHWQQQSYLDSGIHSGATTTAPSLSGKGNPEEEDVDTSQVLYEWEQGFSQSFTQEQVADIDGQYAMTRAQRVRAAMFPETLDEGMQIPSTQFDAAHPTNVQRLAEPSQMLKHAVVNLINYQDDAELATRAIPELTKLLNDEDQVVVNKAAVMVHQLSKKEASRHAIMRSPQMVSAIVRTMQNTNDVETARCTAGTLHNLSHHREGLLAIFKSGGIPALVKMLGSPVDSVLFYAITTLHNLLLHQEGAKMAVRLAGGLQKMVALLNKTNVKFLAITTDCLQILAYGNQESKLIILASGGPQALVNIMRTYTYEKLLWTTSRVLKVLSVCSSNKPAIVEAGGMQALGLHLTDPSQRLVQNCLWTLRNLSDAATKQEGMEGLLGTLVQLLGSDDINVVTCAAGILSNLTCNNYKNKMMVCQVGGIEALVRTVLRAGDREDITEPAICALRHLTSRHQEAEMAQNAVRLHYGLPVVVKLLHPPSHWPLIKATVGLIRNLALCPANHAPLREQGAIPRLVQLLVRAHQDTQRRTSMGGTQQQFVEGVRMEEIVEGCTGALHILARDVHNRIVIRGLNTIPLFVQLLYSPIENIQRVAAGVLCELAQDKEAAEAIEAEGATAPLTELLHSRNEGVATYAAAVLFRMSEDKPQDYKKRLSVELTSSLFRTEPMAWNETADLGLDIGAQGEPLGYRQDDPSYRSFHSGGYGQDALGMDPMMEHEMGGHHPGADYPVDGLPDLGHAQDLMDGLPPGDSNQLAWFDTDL
Put plainly: NanoBRET in HEK293 cells, Bcat-Halo/TCF4-Luc (competitor TCF4-Luc); absolute IC50. For orientation: Bioluminescence resonance energy transfer reports proximity on the nanometre scale.

For assay [3], the target named is T3, full-length beta-Catenin (Uniprot ID P35222) (Homo sapiens (Human), UniProt P35222 2-781).
T3 construct: Also used here for the endogenous beta-catenin of the DLD1 TCF reporter cells; also called bCat; B-Catenin
T3 sequence: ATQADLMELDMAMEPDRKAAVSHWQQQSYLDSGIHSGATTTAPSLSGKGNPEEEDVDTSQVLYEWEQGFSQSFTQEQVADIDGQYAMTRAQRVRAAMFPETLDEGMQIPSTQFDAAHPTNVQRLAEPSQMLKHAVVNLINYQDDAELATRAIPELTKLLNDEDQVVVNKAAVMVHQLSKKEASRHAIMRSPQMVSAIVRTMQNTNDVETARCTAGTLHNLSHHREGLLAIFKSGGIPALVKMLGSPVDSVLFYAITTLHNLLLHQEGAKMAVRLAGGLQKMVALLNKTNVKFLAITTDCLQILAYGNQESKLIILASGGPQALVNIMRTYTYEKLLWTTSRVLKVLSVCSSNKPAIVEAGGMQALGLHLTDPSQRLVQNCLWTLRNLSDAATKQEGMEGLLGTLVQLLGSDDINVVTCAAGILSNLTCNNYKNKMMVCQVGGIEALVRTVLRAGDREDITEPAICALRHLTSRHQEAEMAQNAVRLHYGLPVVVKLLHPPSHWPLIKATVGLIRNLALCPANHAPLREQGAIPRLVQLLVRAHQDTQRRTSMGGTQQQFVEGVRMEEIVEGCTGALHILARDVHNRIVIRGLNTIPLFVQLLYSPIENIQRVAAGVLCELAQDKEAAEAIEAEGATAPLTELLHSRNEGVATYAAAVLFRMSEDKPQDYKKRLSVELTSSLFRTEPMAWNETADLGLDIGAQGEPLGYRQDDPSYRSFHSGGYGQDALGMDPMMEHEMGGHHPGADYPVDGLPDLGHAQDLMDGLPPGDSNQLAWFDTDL
Put plainly: fluorescence polarization competition; full-length beta-catenin, competitor 5FAM-TCF4(10-53) probe. The essentials: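 Fluorescence polarization was read in duplicate after the plate sat 60 minutes at 20° C. shielded from light. Values come from fitting to a 1:1 binding model with hill slope.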

For orientation: IC50 means the concentration needed to halve the response being measured. The low end stands for greater potency, the high end for weaker potency. With Ac-PD[Cha][R5]DDAAFT[PyrS2(3)][Phe(2-Cl)][Bta]S-NH2 (staple 4-11, Stapled peptide, one staple) [I-1184], the IC50 in assay [1] amounted to 176 nM. The EC50 is the concentration giving half of the maximal effect. A higher EC50 goes with a need for much substance. With Ac-[αAllylPro]DL[B5(4)]DEAAFN[S8]F[Bta]N-NH2 (staple 1-4, 4-11; also: olefin E/Z not assigned, earlier-eluting staple isomer, Stapled peptide composition) [I-752], the concentration for half-maximal inhibition (IC50) in assay [2] is 9900 nM. The same molecule had a 50% effective concentration (EC50) in assay [3] of 16 nM. For Ac-[αAllylPro]DL[B5(4)]DEAAFN[S8]F[Bta]N-NH2 (staple 1-4, 4-11; also: olefin E/Z not assigned, later-eluting staple isomer, Stapled peptide composition) [I-753] the same measures were 10000 nM and 14 nM.
